± gives the uncertainty stated by the source.
Test: self-splicing fitness, log relative to wild type (ln ratio); higher = more splicing; Tetrahymena group I intron in knt gene, E. coli kanamycin selection, DiMSum; sequences stand for … in CUCUCU…GGAGGGAAAAGUUAUCAGGCAUGCACCUGGUAGCUAGUCUUUAAACCAAUAGAUUGCAUCGGUUUAAAAGGCAAGACCGUCAAAUUGCGGGAAAGGGGUCAACAGCCGUUCAGUACCAAGUCUCAGGGGAAACUUUGAGAUGGCCUUGCAAAGGGUAUGGUAAUAAGCUGACGGACAUGGUCCUAACCACGCAGCCAAGUCCUAAGUCAACAGAUCUUCUGUUGAUAUGGAUGCAGUUCACAGACUAAAUGUCGGUCGGGGAAGAUGUAUUCUUCUCAUAAGAUAUAGUCGGACCUCUCCUUAAUGGGAGCUAGCGGAUGAAGUGAUGCAACACUGGAGCCGCUGGGAACUAAUUUGUAUGCGAAAGUAUAUUGAUUAGUUUUGGAGUACUCGUGGUCG
Method in brief: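 A randomised library covering all eight P1ex-region intron nucleotides was built with the intron in the knt kanamycin-resistance gene on pET-22b(+) and held in E. coli BL21(DE3). Cells were grown overnight at 37°C or 30°C on LB agar, with or without 25 μg/mL kanamycin, plus 100 μg/mL carbenicillin, 50 μM IPTG and 0.2% rhamnose, and pooled colonies were amplicon-sequenced on an Illumina HiSeq 2500. DiMSum fitness is the error-weighted combination of wild-type-normalised replicate fold changes, kanamycin versus none.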

Row | Sequence | self-splicing fitness (ln) (30 °C) | self-splicing fitness (ln) (37 °C)
1 | AGCAAGCAAUAUUACGGGGU | -2.45 ± 0.15 | -2 ± 0.12
2 | AGCAAGCAAUAUUACGGGUU | -1.67 ± 0.1 | -2.17 ± 0.14
3 | AGCAAGCAAUAUUACGGUGC | -1.6 ± 0.11 | -3.4 ± 0.22
4 | AGCAAGCAAUAUUACGUCUU | -1.38 ± 0.068 | -0.234 ± 0.074
5 | AGCAAGCAAUAUUACGUGAC | -2.49 ± 0.2 | -1.85 ± 0.27
6 | AGCAAGCAAUAUUACGUUGU | -3.33 ± 0.12 | -2.87 ± 0.14
7 | AGCCAGCAAUAUUACGAAUA | -3.25 ± 0.27 | -2.94 ± 0.3
8 | AGCCAGCAAUAUUACGACAA | -3.47 ± 0.23 | -3.18 ± 0.2
9 | AGCCAGCAAUAUUACGAGCA | -0.932 ± 0.11 | 0.49 ± 0.14
10 | AGCCAGCAAUAUUACGAUCG | -3.74 ± 0.26 | -1.69 ± 0.15
11 | AGCCAGCAAUAUUACGAUGC | -3.79 ± 0.47 | -0.986 ± 0.2
12 | AGCCAGCAAUAUUACGAUUA | -2.22 ± 0.27 | -2.48 ± 0.28
13 | AGCCAGCAAUAUUACGCAUC | -3.75 ± 0.2 | -3.03 ± 0.17
14 | AGCCAGCAAUAUUACGCGUG | -1.91 ± 0.089 | -1.35 ± 0.092
15 | AGCCAGCAAUAUUACGCUAG | -2.97 ± 0.25 | -2.81 ± 0.25
16 | AGCCAGCAAUAUUACGGAUU | -2.85 ± 0.1 | -0.534 ± 0.093
17 | AGCCAGCAAUAUUACGGCGU | -1.61 ± 0.09 | -1.44 ± 0.12
18 | AGCCAGCAAUAUUACGGCUC | -2.52 ± 0.18 | -3.14 ± 0.31
19 | AGCCAGCAAUAUUACGGGAC | -2.67 ± 0.22 | -2.7 ± 0.27
20 | AGCCAGCAAUAUUACGGGCC | -2.77 ± 0.2 | -3.49 ± 0.46
21 | AGCCAGCAAUAUUACGUAUA | -3.4 ± 0.14 | -2.69 ± 0.17
22 | AGCCAGCAAUAUUACGUAUU | -3.72 ± 0.13 | -2.05 ± 0.12
23 | AGCCAGCAAUAUUACGUCCA | -2.69 ± 0.18 | -1.99 ± 0.2
24 | AGCCAGCAAUAUUACGUGAA | -3.14 ± 0.091 | -1.81 ± 0.1
25 | AGCCAGCAAUAUUACGUGUC | -3.17 ± 0.12 | -0.932 ± 0.083
26 | AGCCAGCAAUAUUACGUUGU | -3.58 ± 0.21 | -2.01 ± 0.15

Row | Sequence | self-splicing fitness (ln) (30 °C) | self-splicing fitness (ln) (37 °C)
27 | AGCGAGCAAUAUUACGACAG |  | -2.08 ± 0.4
28 | AGCGAGCAAUAUUACGACCU | -0.933 ± 0.15 | -0.654 ± 0.15
29 | AGCGAGCAAUAUUACGAUCA | -1.94 ± 0.26 | -2.08 ± 0.37
30 | AGCGAGCAAUAUUACGAUCG | -1.79 ± 0.25 | -1.63 ± 0.3
31 | AGCGAGCAAUAUUACGAUUU | -1.4 ± 0.1 | -0.548 ± 0.14
32 | AGCGAGCAAUAUUACGCCCG |  | -0.109 ± 0.42
33 | AGCGAGCAAUAUUACGCCGG | -3.03 ± 0.27 | -2.44 ± 0.5
34 | AGCGAGCAAUAUUACGGAGC |  | -2.92 ± 0.4
35 | AGCGAGCAAUAUUACGGAGG | -3.59 ± 0.47 | -1.53 ± 0.33
36 | AGCGAGCAAUAUUACGGAUA | -2.18 ± 0.39 | -2.17 ± 0.34
37 | AGCGAGCAAUAUUACGGCCA | -1.8 ± 0.099 | -1.27 ± 0.078
38 | AGCGAGCAAUAUUACGGCCC | -1.03 ± 0.28 | -0.383 ± 0.24
39 | AGCGAGCAAUAUUACGGGAC |  | -2.99 ± 0.38
40 | AGCGAGCAAUAUUACGGUUA | -1.22 ± 0.12 | -1.9 ± 0.11
41 | AGCGAGCAAUAUUACGUCAA | -2.95 ± 0.48 | -0.741 ± 0.22
42 | AGCGAGCAAUAUUACGUUAU | -3.81 ± 0.36 | -0.895 ± 0.16
43 | AGCUAGCAAUAUUACGACGG | -1.66 ± 0.23 | -1.43 ± 0.42
44 | AGCUAGCAAUAUUACGACUA | -0.935 ± 0.14 | -0.86 ± 0.13
45 | AGCUAGCAAUAUUACGCAGC |  | -0.17 ± 0.24
46 | AGCUAGCAAUAUUACGCAGG | -3.49 ± 0.22 | -3.93 ± 0.33
47 | AGCUAGCAAUAUUACGCGAG | -2.38 ± 0.22 | -3.12 ± 0.32
48 | AGCUAGCAAUAUUACGCGUC | -4.28 ± 0.36 | -2.08 ± 0.23
49 | AGCUAGCAAUAUUACGCUGU | -2.86 ± 0.2 | -3.07 ± 0.32
50 | AGCUAGCAAUAUUACGGCUC | -3.32 ± 0.37 | -3.06 ± 0.43
51 | AGCUAGCAAUAUUACGGGGU | -2.6 ± 0.16 | -2.13 ± 0.18
52 | AGCUAGCAAUAUUACGGUAC | -2.2 ± 0.26 | -1.1 ± 0.24

Row | Sequence | self-splicing fitness (ln) (30 °C) | self-splicing fitness (ln) (37 °C)
53 | AGCUAGCAAUAUUACGUAAC | -2.01 ± 0.15 | -0.993 ± 0.16
54 | AGCUAGCAAUAUUACGUCGA | -2.69 ± 0.2 | -1.9 ± 0.14
55 | AGCUAGCAAUAUUACGUCUC | -4.51 ± 0.39 | -2.86 ± 0.29
56 | AGCUAGCAAUAUUACGUGAG | -2.57 ± 0.12 | -2.28 ± 0.16
57 | AGCUAGCAAUAUUACGUGAU | -3.09 ± 0.15 | -1.79 ± 0.15
58 | AGCUAGCAAUAUUACGUGCC | -2.52 ± 0.36 | -1.84 ± 0.27
59 | AGCUAGCAAUAUUACGUGGU | -2.52 ± 0.17 | -2.18 ± 0.24
60 | AGCUAGCAAUAUUACGUUCG | -2.57 ± 0.14 | -2.41 ± 0.23
61 | AGCUAGCAAUAUUACGUUCU | -1.07 ± 0.062 | -0.621 ± 0.08
62 | AGCUAGCAAUAUUACGUUGU | -2.56 ± 0.17 | -2.32 ± 0.22
63 | AGCUAGCAAUAUUACGUUUA | -2.69 ± 0.14 | -1.46 ± 0.098
64 | AGCUAGCAAUAUUACGUUUC | -4.92 ± 0.25 | -2.56 ± 0.16
65 | AGGAAGCAAUAUUACGAACU | -0.35 ± 0.097 | 0.434 ± 0.13
66 | AGGAAGCAAUAUUACGAAGA | -2.9 ± 0.34 | -1.61 ± 0.32
67 | AGGAAGCAAUAUUACGAAUA | -2.74 ± 0.36 | -1.11 ± 0.27
68 | AGGAAGCAAUAUUACGAGCU | -0.467 ± 0.082 | 0.0249 ± 0.1
69 | AGGAAGCAAUAUUACGAUCA | -0.344 ± 0.091 | -0.31 ± 0.09
70 | AGGAAGCAAUAUUACGCAGA | -3.5 ± 0.31 | -1.33 ± 0.14
71 | AGGAAGCAAUAUUACGCGAC | -2.62 ± 0.45 | -0.793 ± 0.31
72 | AGGAAGCAAUAUUACGCUAU | -3.03 ± 0.21 | -2.35 ± 0.2
73 | AGGAAGCAAUAUUACGCUCU | -2.56 ± 0.22 | -1.99 ± 0.29
74 | AGGAAGCAAUAUUACGGAAA | -2.92 ± 0.23 | -2.26 ± 0.18
75 | AGGAAGCAAUAUUACGGACU | -0.293 ± 0.11 | -0.668 ± 0.097
76 | AGGAAGCAAUAUUACGUAUA | -1.79 ± 0.17 | -2.16 ± 0.24
77 | AGGAAGCAAUAUUACGUUCU | -3.47 ± 0.28 | -1.59 ± 0.17
